Earlier results in publication PMC3210788.

Biological target: VEGFR-1 (Mus musculus) (UniProt P35969)
Chain of UniProt P35969 (P35969 23-1333 S1181G): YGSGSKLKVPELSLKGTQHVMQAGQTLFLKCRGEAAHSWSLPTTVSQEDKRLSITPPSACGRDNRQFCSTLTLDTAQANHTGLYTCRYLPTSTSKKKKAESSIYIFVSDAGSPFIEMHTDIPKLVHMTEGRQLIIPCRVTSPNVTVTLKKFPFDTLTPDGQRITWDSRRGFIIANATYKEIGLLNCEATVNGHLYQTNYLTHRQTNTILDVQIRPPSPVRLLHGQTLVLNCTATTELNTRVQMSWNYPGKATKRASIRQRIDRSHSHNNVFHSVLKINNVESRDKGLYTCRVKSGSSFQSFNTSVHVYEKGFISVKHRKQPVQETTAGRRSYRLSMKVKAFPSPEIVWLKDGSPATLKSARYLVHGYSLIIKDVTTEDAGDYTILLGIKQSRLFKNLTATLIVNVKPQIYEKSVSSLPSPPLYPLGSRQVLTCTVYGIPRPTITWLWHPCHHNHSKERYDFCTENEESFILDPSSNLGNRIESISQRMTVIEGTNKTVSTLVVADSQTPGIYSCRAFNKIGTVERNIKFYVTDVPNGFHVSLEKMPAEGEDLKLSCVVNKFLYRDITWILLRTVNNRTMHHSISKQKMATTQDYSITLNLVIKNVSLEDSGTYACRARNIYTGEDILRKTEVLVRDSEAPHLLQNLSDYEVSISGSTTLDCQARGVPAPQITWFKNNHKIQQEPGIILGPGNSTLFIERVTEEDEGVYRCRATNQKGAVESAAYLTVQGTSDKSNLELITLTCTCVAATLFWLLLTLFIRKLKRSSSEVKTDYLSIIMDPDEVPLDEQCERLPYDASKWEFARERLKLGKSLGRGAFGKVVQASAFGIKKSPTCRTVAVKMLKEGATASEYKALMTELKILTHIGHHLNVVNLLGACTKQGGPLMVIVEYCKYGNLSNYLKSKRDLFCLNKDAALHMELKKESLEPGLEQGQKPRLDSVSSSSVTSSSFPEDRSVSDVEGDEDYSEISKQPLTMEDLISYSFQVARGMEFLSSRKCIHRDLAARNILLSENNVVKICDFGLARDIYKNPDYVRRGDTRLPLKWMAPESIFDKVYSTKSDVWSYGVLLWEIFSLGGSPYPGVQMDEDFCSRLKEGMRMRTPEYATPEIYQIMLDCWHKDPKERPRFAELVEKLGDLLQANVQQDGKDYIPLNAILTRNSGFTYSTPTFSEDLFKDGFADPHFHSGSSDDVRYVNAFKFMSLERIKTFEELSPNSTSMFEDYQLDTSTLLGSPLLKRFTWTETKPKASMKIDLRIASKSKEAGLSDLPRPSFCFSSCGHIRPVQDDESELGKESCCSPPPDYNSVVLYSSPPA

Kd: 33 pM
Substance: VEGF (from UniProt Q00731)
